The target in experiment [1] is Chikungunya virus E1 protein (Chikungunya virus, UniProt Q8JUX5 810-1224). The experiment is described as follows: SPR. (In general: In SPR one partner is held on a chip, and binding of the other changes the refractive index at the surface.)
Experiment [2] concerns the target Chikungunya virus-like particles (CHIKV VLP) (Chikungunya virus, UniProt Q8JUX5 810-1248; Q8JUX5 326-748). The experiment is described as follows: SPR.

Sequence of Chikungunya virus E1 protein (Q8JUX5 810-1224): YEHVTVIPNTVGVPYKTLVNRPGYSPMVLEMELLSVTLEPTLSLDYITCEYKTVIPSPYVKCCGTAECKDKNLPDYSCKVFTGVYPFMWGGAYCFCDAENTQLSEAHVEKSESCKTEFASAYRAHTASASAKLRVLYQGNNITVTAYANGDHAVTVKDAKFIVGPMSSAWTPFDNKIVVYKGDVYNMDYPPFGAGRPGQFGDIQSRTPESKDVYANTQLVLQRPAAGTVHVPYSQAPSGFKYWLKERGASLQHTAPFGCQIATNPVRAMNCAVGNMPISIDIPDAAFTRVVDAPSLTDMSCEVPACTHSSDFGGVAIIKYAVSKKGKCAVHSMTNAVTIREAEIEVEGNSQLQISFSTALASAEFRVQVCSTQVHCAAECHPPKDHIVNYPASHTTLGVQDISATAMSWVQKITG
Sequence of Chikungunya virus-like particles (CHIKV VLP) (Q8JUX5 810-1248, chain 1 of 2): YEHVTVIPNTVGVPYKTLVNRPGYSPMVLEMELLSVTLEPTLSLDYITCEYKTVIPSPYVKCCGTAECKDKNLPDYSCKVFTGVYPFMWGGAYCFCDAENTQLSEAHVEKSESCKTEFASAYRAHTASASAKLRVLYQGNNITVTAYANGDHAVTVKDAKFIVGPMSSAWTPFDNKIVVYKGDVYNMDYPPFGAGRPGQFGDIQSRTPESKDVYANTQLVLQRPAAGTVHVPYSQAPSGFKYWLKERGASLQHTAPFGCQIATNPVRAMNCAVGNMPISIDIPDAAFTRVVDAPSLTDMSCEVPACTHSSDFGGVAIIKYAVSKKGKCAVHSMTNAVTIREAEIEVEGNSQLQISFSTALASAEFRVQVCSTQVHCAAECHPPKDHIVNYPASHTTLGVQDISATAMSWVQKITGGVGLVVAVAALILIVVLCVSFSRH
Sequence of Chikungunya virus-like particles (CHIKV VLP) (Q8JUX5 326-748, chain 2 of 2): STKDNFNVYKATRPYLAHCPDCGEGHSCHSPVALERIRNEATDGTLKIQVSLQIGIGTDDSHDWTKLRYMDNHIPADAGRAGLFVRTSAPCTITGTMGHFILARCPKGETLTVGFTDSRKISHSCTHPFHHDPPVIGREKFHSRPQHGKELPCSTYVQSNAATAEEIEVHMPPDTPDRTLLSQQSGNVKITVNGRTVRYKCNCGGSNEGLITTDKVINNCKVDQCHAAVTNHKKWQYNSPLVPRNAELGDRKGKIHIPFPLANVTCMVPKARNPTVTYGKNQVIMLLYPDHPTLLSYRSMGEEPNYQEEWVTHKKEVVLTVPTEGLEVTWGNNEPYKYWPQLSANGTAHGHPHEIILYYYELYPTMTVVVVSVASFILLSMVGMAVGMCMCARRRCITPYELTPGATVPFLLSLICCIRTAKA

B1: CA6 (VHH)
VHH: EVQLQASGGGLVRPGGSLRLSCAASGSFFTIDTMAWYRQAPGRRRELVARQSSGRSPDYDDSVVGRFTISRDIAKSSVYLQMDSLQPEDTALYYCYQSIRPWPGSSYEAHWGQGIQVIVSS
Turning to B1, in experiment [1], the dissociation constant Kd (commonly the equilibrium constant for the complex coming apart) was 0.132 nM.

B2: CC3 (VHH)
VHH: EVQLQASGGGSVQAGGSLRLSCVTSQNLFEYYTMGWYRQVPGSQRERVALINNGGSTVAGSVEGRFTISRDHAKNSVYLQMNYLKPEDSAVYYCRAFGPADYWGQGTQVTVSS
As for B2, the dissociation constant Kd worked out at 1.2 nM in experiment [2] and 3.04 nM in experiment [1].

The values above are taken from US20200024331A1 (published 2020).
